This note sets out measurements from article PMC6085349, “Silkworms suppress the release of green leaf volatiles by mulberry leaves with an enzyme from their spinnerets” (Scientific Reports, 2018).

Substrate in the data set: CC/C=C\C[C@@H](/C=C/C=C\CCCCCCCC(=O)O)OO
The experiment in a line: purified protein. The format is biochemical, Bombyx mori. The conditions noted are these: typical assay 50 mM sodium borate pH 9.0, no cofactor, enzyme inactivates during turnover.

B1: BmFHD (Bombyx mori fatty acid hydroperoxide dehydratase) (Bombyx mori) (protein)
chain: GGLRTTWGVGLGLGTDFFYEIPRSLEEVKSQGWVLTDKADGLPLPSLALYCSEDRILCGFFDETEYVVGLQVSLPVDEVTDIIFDMPTQGFIIWETEVDGELKKFYSIQQYFINEDTLKQSVEDRLSKWDSSKTLQEKSIWVTGFNGTLLEISTVADDIANGDDFTKQACVPWMGRHYYYKMSAKTECKADTLLPWFPIVESGELIATGFISFLKLSNTYKWFEKPSKAAVQFIVPDGPKCLYDLAEDSGLTTMHIYYVNQPWLVSCLWQ
notes: native, purified from middle silk glands (MSG-A) of fifth instar larvae; 289 aa precursor with predicted 19-residue N-terminal signal peptide; 32 kDa on SDS-PAGE; no tag
With B1, the Km – broadly, the substrate concentration at which the rate is half of its maximum – is given as 1.13 µM.
